Data on 3 molecules can be found in patent US8173771B2, “Humanin receptor or humanin-like polypeptide receptor” (Keio Univeristy, priority 2005, dated 2012).

The target of experiment [1] is T1, C-terminally myc-tagged human WSX-1 (mycHis-WSX-1) (human, UniProt Q6UWB1 33-636).
T1 construct: whole, on cells; in the pull-down and co-immunoprecipitation it stood in cell lysates; also called myc-WSX-1; IL-27 receptor; not shown: C-terminal myc-His tag of the pEF-mycHis vector
T1 sequence (looked up): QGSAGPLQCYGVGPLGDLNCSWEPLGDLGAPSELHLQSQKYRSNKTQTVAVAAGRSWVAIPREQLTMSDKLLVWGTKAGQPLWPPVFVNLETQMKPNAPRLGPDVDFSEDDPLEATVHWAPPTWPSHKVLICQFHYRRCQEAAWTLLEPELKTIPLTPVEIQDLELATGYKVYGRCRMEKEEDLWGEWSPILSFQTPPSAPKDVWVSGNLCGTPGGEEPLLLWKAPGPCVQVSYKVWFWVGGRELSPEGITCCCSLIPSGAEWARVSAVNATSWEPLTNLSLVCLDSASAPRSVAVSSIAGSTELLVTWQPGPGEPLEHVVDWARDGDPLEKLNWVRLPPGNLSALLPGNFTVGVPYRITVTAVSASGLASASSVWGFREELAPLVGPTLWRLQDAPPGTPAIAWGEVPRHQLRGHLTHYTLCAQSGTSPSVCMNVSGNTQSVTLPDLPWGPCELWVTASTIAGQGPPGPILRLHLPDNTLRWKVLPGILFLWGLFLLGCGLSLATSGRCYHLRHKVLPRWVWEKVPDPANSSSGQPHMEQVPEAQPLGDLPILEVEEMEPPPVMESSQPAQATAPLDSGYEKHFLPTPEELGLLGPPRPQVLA
Briefly: cold competitor (10 µM) in binding assay (1), F11 cells expressing human WSX-1 and gp130. The method, then:
B) F11 cells were transfected with 0.5 µg of pEF-myc His human CREME9 or pEF-mycHis human WSX-1 in association with 0.5 µg of pCAG-human gp130. […] Fluorescence signals were detected with a laser-scanning, confocal microscope LSM (Carl Zeiss, Germany) (right panels).
(§1) F11 cells (7×10^4/well in 6-well plates) were replated into 96-well plates (7×10^3 cells/well) at 24 hrs after transfection with indicated amounts of the plasmids encoding mycHis-WSX or V5-CNTF-R, and with PCAG-human gp130 if required. […] After 6 hrs incubation, they were fixed with 4% paraformaldehyde in PBS for 30 min. After washing with PBS, cells were stained with FITC-conjugated avidin (Molecularprobe, Eugene, Oreg., USA). Immunofluorescence intensity was measured (excitation=485 nm, emission=535 nm) with a spectrofluorometer (Wallac1420 ARVOsx Multi Label Counter). Immunohistochemical analysis was done with a laser-scanning, confocal microscope LSM (Carl Zeiss, Germany).

The target of experiment [2] is T2, Humanin receptor (HNR) overexpressed in F11 cells: human CNTF-R/WSX-1/gp130 (human, UniProt P26992 23-342; Q6UWB1 33-636; P40189 23-918).
T2 construct: whole, on cells; The three human subunits co-transfected into F11 cells, which also carry the endogenous receptor; also called both the CNTF receptor and WSX-1; not shown: C-terminal V5 tag; C-terminal myc-His tag
T2 sequence (P26992 23-342, chain 1 of 2): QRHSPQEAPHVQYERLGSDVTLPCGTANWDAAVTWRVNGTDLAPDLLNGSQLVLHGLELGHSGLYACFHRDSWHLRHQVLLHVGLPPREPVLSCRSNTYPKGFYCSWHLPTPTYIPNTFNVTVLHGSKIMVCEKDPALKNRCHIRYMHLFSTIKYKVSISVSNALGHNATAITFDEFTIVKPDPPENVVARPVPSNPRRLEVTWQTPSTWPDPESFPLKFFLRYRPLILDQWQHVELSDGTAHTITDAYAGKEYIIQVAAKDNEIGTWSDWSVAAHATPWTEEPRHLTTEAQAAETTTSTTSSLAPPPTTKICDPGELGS
T2 sequence (P40189 23-918, chain 3 of 2): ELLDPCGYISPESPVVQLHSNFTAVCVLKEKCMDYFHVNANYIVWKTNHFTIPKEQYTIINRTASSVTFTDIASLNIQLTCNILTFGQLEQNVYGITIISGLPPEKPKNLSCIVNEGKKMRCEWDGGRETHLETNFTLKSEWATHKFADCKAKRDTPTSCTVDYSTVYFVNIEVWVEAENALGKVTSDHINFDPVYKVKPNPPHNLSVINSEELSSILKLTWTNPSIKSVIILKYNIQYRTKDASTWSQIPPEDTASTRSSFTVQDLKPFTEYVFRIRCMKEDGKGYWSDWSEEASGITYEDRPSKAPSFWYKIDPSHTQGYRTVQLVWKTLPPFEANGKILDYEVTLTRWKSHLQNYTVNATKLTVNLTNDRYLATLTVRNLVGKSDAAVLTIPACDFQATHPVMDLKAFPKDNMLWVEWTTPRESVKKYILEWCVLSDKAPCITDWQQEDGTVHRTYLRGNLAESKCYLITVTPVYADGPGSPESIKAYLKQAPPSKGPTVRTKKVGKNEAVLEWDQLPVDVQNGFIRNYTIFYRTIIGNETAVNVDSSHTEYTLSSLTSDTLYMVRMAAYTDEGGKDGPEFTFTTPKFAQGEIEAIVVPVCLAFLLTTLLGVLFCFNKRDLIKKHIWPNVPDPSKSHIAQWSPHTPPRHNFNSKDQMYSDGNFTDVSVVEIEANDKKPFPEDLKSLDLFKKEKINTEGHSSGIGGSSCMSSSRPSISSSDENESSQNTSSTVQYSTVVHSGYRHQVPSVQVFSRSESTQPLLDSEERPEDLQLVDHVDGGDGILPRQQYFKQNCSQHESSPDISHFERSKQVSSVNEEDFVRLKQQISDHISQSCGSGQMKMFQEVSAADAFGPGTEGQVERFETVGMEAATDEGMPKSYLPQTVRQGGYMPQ
Briefly: cold competitor in binding assay (2), F11 cells transfected with human CNTF-R/WSX-1/gp130. On the procedure:
A) F11 cells were seeded on 96-well plates coated with poly-L-lysine (7 ×10^3 cells/well). […] On the other hand, F11 cells were transfected with 0.5 μg of pcDNA3.1/GS-human CNTF-R, pEF1/MycHis-human WSX-1, and 1.0 μg of pCAG-human gp130. At 24 hrs after the transfection, the cells were re-seeded on 96-well plates coated with poly-L-lysine (7 ×10^3 cells/well).
as §1

For experiment [3], the system named is primary cortical neurons (PCNs). Put plainly: Aβ neurotoxicity in primary cortical neurons, WST-8 / Calcein / LDH. Format: cell-based, mouse. To be noted: for effect on the HN effect: 10 nM HNG. On the procedure:
B) PCNs were incubated with 25 μM Aβ (upper) in the presence of 10 μg of recombinant soluble human gp130 (lower “+”) or BSA (lower “−”). Cell viability was determined by WST-8 assay (upper) or Calcein fluorescence assay (lower) at 72 hr after the onset of treatment with Aβ.
C) PCNs were incubated with 25 μM Aβ (1-43) in the presence of 1 μg of neutralizing anti-mouse gp130 antibody (RX435) or control IgG. Cell viability and cell mortality were determined by Calcein fluorescence (left panel) and LDH assays (right panel), respectively, at 72 hr after the onset of treatment with Aβ (1-43).
[…] At 72 hr after incubation, the cells were harvested for WST-8 assays or/and Calcein fluorescence assays to show cell viability.
B) The soluble IL-6 receptor-α (sIL-6R) or the soluble CNTF-R (100 ng/ml) were added to the cells as in the above A), followed by the stimulation with its ligand, IL-6 or CNTF (100 ng/ml), respectively to show the effects on the neuronal cell death due to Aβ. The right and left graphs show the cell viabilities determined by WST-8 assays and Calcein fluorescence assays, respectively.
C) The neutralizing antibodies (1 μg) for the mouse gp130, mouse LIFR, mouse IL-11R and rat CNTF-R were added as in the above A), and cell viability was determined by Calcein fluorescence assays after 72 hours.
WST-8 assay was performed at 72 hrs after the treatment.
The primary culture of mouse cortical neurons was prepared as described previously (Sudo et al., 2000). Briefly, primary cortical neurons, obtained from embryonic day 14 (E14) ICR mice were seeded in poly-L-lysine-coated 96 well plates (Sumitomo Bakelite) at 2.5 or 5.0×10^4 cells/well in Neuron Medium (Sumitomo Bakelite) (Hashimoto et al., 2003; Niikura et al., 2004). Purity of neurons by this method was >98%. After 3 days, the culture medium was replaced with DMEM with N2 supplement. On the fourth day in vitro, 25 μM of Aβ (1-42) was added in association with indicated concentrations of HN or cytokines in the presence or the absence of soluble cytokine receptors or neutralizing antibodies. At 72 hrs after the onset of treatment, cell viability was assessed by WST-8 assay and/or Calcein fluorescence assay and cell mortality was assessed by the Trypan blue exclusion assay and LDH assay (Hashimoto et al, 2000, 2001 a b, 2003).

Experiment [4] has as its system STAT3. Briefly: Immunoblot of phosphotyrosine 705 of STAT3 in F11 cells. The format is cell-based. Particulars: F11 cells, 15 min. The method, then: E) F11 cells were transfected with an indicated amount of pRNA-U6.1/Shuttle vector (empty), pRNA-U6.1/Shuttle-IL-6R siRNA, or pRNA-U6.1/Shuttle-LIFR siRNA. At 48 hrs after transfection, the cells were treated with 100 ng/ml IL-6, 100 ng/ml CNTF or 1 μM HNG at 37° for 15 min, and harvested. The results of immunoblot analysis using anti-phophoSTAT3 ([…]) antibody and anti-STAT3 antibody were shown in photos. A) F11 cells were added with an indicated amount of HN, HNG or HNA and harvested 15 min later for immunoblot analysis with antibodies recognizing phosphotyrosine 705 of STAT3 or STAT3. The results are shown in photos. B) F11 cells were transfected with 0.5 μg of pRNA-U1.6/Shuttle vector, pRNA-U6.1/Shuttle-WSX-1 siRNA, pRNA-U6.1/Shuttle-CNTF-R siRNA, both pRNA-U6.1/Shuttle-WSX-1 siRNA and pRNA-U6.1/Shuttle-CNTF-R siRNA (0.5 μg each), or pRNA-U6.1/Shuttle-FPR2 siRNA. The total amount of vectors was adjusted to be 1.0 μg by including a backbone vector. […] The results are shown in photos. Cell lysates (10-20 μg/lane) or pulled-down precipitates were subject to SDS-PAGE, and the proteins separated on the gel were transferred onto polyvinylidene difluoride membranes as described (Hashimoto et al, 2000). Visualization of the immunoreactive protein bands was performed by ECL (Amersham Pharmacia Biotech, Uppsala, Sweden).
Background: In western blotting, separated proteins are transferred to a membrane and probed.

For experiment [5], the system named is F11 cells. Briefly: Neuronal cell death of F11 cells induced by overexpression of FAD genes (V642I-APP, M146L-PS1), WST-8 / Trypan blue. Format: cell-based. The method, then: D) F11 cells were transfected with 0.5 μg of the pcDNA3 vector or pcDNA3-V642I-APP in association with 0.5 μg of the pEFBos vector or pEFBos-wild-type human gp130 (gp130wt). At 24 hr after transfection, the cells were added with 1 μg of neutralizing anti-mouse gp130 antibody. Cell mortality (left panel) and cell viability (right panel) were determined by Trypan blue exclusion assay and WST-8 assay at 72 hr after transfection. Below are shown the results of the expression of V642I-APP, and human gp130wt, which were confirmed by immunoblot analysis (photos).
B) F11 cells were transfected with 0.5 μg of the pcDNA3 vector or pcDNA3-V642I-APP in association with pRNA-U6.1/Shuttle vector (NO), pRNA-U6.1/Shuttle-siWSX-1 (W), pRNA-U6.1/Shuttle-siCNTF-R (C), or pRNA-U6.1/Shuttle-siFPR-2 (F) (Hashimoto et al. 2005). At 24 hrs after transfection, the cells were added with or without 10 nM of HNG. At 72 hrs after transfection, the cells were harvested for WST-8 assays. […]
F11 cells were transfected with pcDNA3 vector or pcDNA3-V642I-APP. […] The expression of V642I-APP determined by immunoblot analysis was shown below in a photo. […]
The transfection procedures were as described (Hashimoto et al, 2000, 2001a, 2003). […] Transfection efficiency in these protocols has been determined to be invariably around 70%. […]
For orientation: Tetrazolium assays rely on reduction of a dye to a coloured formazan, in cell work by metabolically active cells.

B1: S14G-Humanin (HNG) (peptide)
peptide: MAPRGFSCLLLLTGEIDLPVKRRA
notes: also called S14G-HN
For B1, the binding result in experiment [1] and in experiment [2] was “binds” throughout.

B2: CNTF: ciliary neurotrophic factor, recombinant cytokine (protein, UniProt P26441 1-200, looked up)
Ciliary neurotrophic factor: MAFTEHSPLTPHRRDLCSRSIWLARKIRSDLTALTESYVKHQGLNKNINLDSADGMPVASTDQWSELTEAERLQENLQAYRTFHVLLARLLEDQQVHFTPTEGDFHQAIHTLLLQVAAFAYQIEELMILLEYKIPRNEADGMPINVGDGGLFEKKLWGLKVLQELSQWTVRSIHDLRFISSHQTGIPARGSHYIANNKKM
Consider B2, for which the “effect on the HN effect” value in experiment [3] (PCN, 10 μM Aβ (1-43)) was “inhibited the HN effect”. Also, the “mimicry of HN in neuroprotection against neuronal cell death by Aβ” value in experiment [3] (cytokine 100 ng/ml with its soluble receptor (sIL-6R or soluble CNTF receptor) 100 ng/ml) is reported as “did not mimic HN”. Also, the “inhibition of neurotoxicity by Aβ” value in experiment [3] (cytokine alone, physiological levels (up to 100 ng/ml), 25 μM Aβ) was “did not inhibit”. Moreover, in experiment [4], the “phosphorylation of tyrosine 705 of STAT3” value is reported as “increased”.

B3: IL-27: IL-27 (IL-27p28/EBV-induced gene 3), IL-6/IL-12 family cytokine binding to WSX-1/gp130 (protein)
chain 1: FPRPPGRPQLSLQELRREFTVSLHLARKLLSEVRGQAHRFAESHLPGVNLYLLPLGEQLPDVSLTFQAWRRLSDPERLCFISTTLQPFHALLGGLGTQGRWTNMERMQLWAMRLDLRDLQRHLRFQVLAAGFNLPEEEEEEEEEEEEERKGLLPGALGSALQGPAQVSWPQLLSTYRLLHSLELVLSRAVRELLLLSKAGHSVWPLGFPTLSPQP
chain 2: RKGPPAALTLPRVQCRASRYPIAVDCSWTLPPAPNSTSPVSFIATYRLGMAARGHSWPCLQQTPTSTSCTITDVQLFSMAPYVLNVTAVHPWGSSSSFVPFITEHIIKPDPPEGVRLSPLAERQLQVQWEPPGSWPFPEIFSLKYWIRYKRQGAARFHRVGPIEATSFILRAVRPRARYYVQVAAQDLTDYGELSDWSLPATATMSLGK
As to B3, the “concentration range showing HN-like effect (activity)” value in experiment [5] (WST-8) fell in the range of 1 to 10 µM. Moreover, in experiment [5] (given with HNG), the “concentration range suppressing the HN effect” value was no more than 100 nM. In experiment [3] (PCN, 10 μM Aβ (1-43)), the “effect on the HN effect” value was “suppressed the HN effect”. Also, in experiment [3] (PCN, higher concentration range, 10 μM Aβ (1-43)), the HN-like effect entry is recorded as “had the HN-like effect”. The “phosphorylation of tyrosine 705 of STAT3” value in experiment [4] was “increased”.
